Results taken from patent US20190367633A1 (BEIJING HANMI PHARMACEUTICAL, published 2019).

Legend:
[1] = molecular target: T1, Recombinant human PD-1 (Beijing Yiqiao Shenzhou, Cat. No. 10377-H08H) (human, UniProt Q15116 25-167); assay: ELISA, antigen coated at 1 ug/mL
T1 construct: Bought protein coated on the ELISA plate
Procedure: The coating was performed at 4° C. overnight. […] Color development was terminated by adding 100 μL/well of 1 M H₂SO₄. The absorbance at 450 nm was read on a microplate reader.

[2] = molecular target: T2, PD-1 on PD-1-overexpressing CHO/PD-1 cells (GenScript, Cat. No. M00529) (UniProt Q15116 25-288, limits assumed); assay: flow cytometry, association of PKH26-stained CHO/PD-1 and CFSE-stained SK-BR-3 cells
T2 construct: whole, on cells
T2 sequence (Q15116 25-288 limits assumed, one chain of several): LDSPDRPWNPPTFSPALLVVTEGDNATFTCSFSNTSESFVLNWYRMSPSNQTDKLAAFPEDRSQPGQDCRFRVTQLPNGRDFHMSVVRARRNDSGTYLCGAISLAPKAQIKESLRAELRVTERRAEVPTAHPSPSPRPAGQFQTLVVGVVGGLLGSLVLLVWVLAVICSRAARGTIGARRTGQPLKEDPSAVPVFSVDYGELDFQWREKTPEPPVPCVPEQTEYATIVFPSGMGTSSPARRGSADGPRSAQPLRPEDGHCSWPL

T1 sequence (Q15116 25-167 limits assumed): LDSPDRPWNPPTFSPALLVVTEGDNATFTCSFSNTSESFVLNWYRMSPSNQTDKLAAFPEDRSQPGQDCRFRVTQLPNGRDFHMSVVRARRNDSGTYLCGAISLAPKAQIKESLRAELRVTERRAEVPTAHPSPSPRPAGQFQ

binding result [1]: binds
binding result [2]: binds
B1: anti-PD-1pem/anti-HER2 heterodimeric bispecific antibody (bispecific antibody, human IgG1, kappa)
heavy 1: not shown
light 1: EIVLTQSPATLSLSPGERATLSCRASKGVSTSGYSYLHWYQQKPGQAPRLLIYLASYLESGVPARFSGSGSGTDFTLTISSLEPEDFAVYYCQHSRDLPLTFGGGTKVEIKRTVAAPSVFIFPPSDEQLKSGTASVVCLLNNFYPREAKVQWKVDNALQSGNSQESVTEQDSKDSTYSLSSTLTLSKADYEKHKVYACEVTHQGLSSPVTKSFNRGEC
heavy 2: not shown
light 2: not shown
notes: also called PD-1/HER2 heterodimeric antibody; PD-1/HER2 heterodimer
